This is an account of results in the RNAGym collection of RNA variant scans (doi:10.7554/elife.90254).

The labels stand for the following.
B1: OR4K15 (parent)
chain: GUUAACGGUCAUAGGCCAUGGAAACUAGGAGCACCAUUUCGCUGCCAGUGAAGAAAUGAACAAAGAAAAUCUGGGCCAGGCAGGCAUCAAAAGAAAUAGUCUUGCGCUCAACCAGAAAGUCUGUAAUCAUUUUAAGGGUA

This data set covers variants of B1. The data set can be described thus: self-cleavage, relative activity (ratio to wild type); higher = more cleavage; in vitro, sequencing; the parent is a self-cleaving ribozyme.
In the case of U38A G93A, the self-cleavage worked out at 2.09.

Take U37C G73A: the self-cleavage was determined as 0.19. As to U38C A134G, the self-cleavage came to 1.74. Regarding U39C A66U, the self-cleavage is 1.28. Then A36U U43C, with 2.05; and U38A A89G, with 2.67.

Turning to U39A U103C, the self-cleavage worked out at 2.1. As to U39C A68G, the self-cleavage turned out to be 1.37. The same measure for U38C A94C: 1.41; for U37C G48A: 1.59. In the case of U37C G83A, the self-cleavage is 2.15. Then U38C A129G, with 1.31. Then U38C A129U, with 1.21; and U39C C105U, with 0.24. The same measure for A36U U102C: 2.06; for A36U A114U: 0.14; for A36U A114G: 0.6. On to U38C A125G, for which the self-cleavage came out at 0.54. On to U38C A140G, for which the self-cleavage worked out at 2.16. Then U37A A66G, with 1.72; and U39C A116G, with 0.83; and U39C A116C, with 0.07.

Regarding U37C A82U, the self-cleavage came out at 0.13. Then U37A A67U, with 0.67. The same measure for U39C A51G: 1.5. The same measure for U37C A110G: 0.13; for U39A G138A: 0.14; for U38C A117G: 1.18. Consider U38A A134G, for which the self-cleavage is 1.9.

On to U39C A125U, for which the self-cleavage came to 1.8. As for U38A A68G, the self-cleavage was 0.82. The same measure for U38C G41U: 1.46; for U38A U132C: 1.58. Take U37C U127C: the self-cleavage was found to be 1.08.

In the case of U37C U127A, the self-cleavage is 2.07. For U37A U127C, the self-cleavage came out at 0.71. Then U37C A59G, with 1.72; and A36U A129G, with 1.12. As for U39C A111C, the self-cleavage worked out at 0.01.

U39C A111G: the self-cleavage stood at 0.02. The same measure for U39C A118U: 0.78; for U39C A82U: 0.22; for A36U A92G: 1.61. The same measure for U38A U108G: 0.01. The same measure for U38A U108A: 0.04. U37A U100C: the self-cleavage is 2.33. Then A36U A63G, with 1.98; and U39C A126G, with 1.18; and U39C A126U, with 1.06. With U37C U97C, the self-cleavage came out at 2.06. Then U39A A68G, with 1.32; and U38C U70C, with 1.05; and U39A U43C, with 1.95. The same measure for U39A U43A: 1.66. Then U37A A82G, with 0.61; and U38C A135U, with 1.86; and U38C A135G, with 1.9. For A36U U127A, the self-cleavage was 2.98. The same measure for A36U A60U: 2.08.

Regarding A36U A60G, the self-cleavage amounted to 1.11. Then U38C U103C, with 1.18; and U38C U103A, with 0.64. The same measure for U39A A62G: 1.21. Then U37C A89C, with 1.31. Consider U37C A89G, for which the self-cleavage was determined as 1.52. Then U37C A89U, with 2.23; and U38C A126U, with 1.12; and U37A U130C, with 0.61. Then U38G A96G, with 0.69; and U39A A114G, with 0.77; and U37C U120A, with 2.58.

On to U37C U120C, for which the self-cleavage amounted to 0.84. The same measure for U39A U57A: 1.37. The same measure for U38C A63G: 1.7. On to U37C U131C, for which the self-cleavage came out at 1.15. The same measure for U38C G137U: 2.1.

For U39C C40U, the self-cleavage came out at 1.54. For U39C A67U, the self-cleavage is 1.9. Then U39C A67G, with 1.24; and U38C U120C, with 1.06; and U38G, with 1.59. Then U38C, with 1.45.

Regarding U38A, the self-cleavage was 1.44. Then A36U U49A, with 0.81. Then U39C A134G, with 1.83; and A36U U122A, with 1.78.

As for A36U U122C, the self-cleavage amounted to 1.15. Turning to U38C C105U, the self-cleavage is 0.19. Then U37C A56G, with 0.73; and U37C A96C, with 0.89. For the variant U37C G44A, the self-cleavage was 1.56.

Turning to U39C A98G, the self-cleavage was found to be 0.98. Regarding U37C A126G, the self-cleavage amounted to 1.31. Then U38C U57C, with 0.83; and U38C U57A, with 1.48. As for U39C A69C, the self-cleavage is 1.33. Then U37A A98G, with 1.07. The same measure for U37C A140U: 1.87; for U39A A95G: 2.05. Then U37A A114U, with 0.06; and U39A C112G, with 0; and U38C U133C, with 0.93.

With A36U A110G, the self-cleavage stood at 0.21. Then U38G A95G, with 2.17; and U37C U49G, with 0.44. With U37C U49C, the self-cleavage came to 1.71. Then U37C U49A, with 1.64; and A36U U37C, with 0.59. Then U38A G48A, with 1.31; and A36U A62C, with 0.87. The same measure for U39C A95U: 1.78.

In the case of A36U U108C, the self-cleavage was found to be 0.02. Turning to A36U U108A, the self-cleavage came out at 0. Then U39A A52U, with 1.65; and A36U A67U, with 1.55; and A36U A67G, with 1.86.

U37C A55U: the self-cleavage was 1.57. The same measure for U38C U124A: 0.81; for U39A A91U: 0.94. The same measure for U38A A94U: 1.28. As for U38A A94G, the self-cleavage is 1.85. Then U38A A94C, with 1.68. Then U38C A114U, with 0.15; and U38C A56G, with 1.5; and U38A U39C, with 1.62. The same measure for A36U A140G: 2.09; for A36U C105U: 0.17; for U38A A116G: 0.81. As to U38C A62U, the self-cleavage is 1.06.

U38C A118U: the self-cleavage worked out at 0.98. As to U37C A66U, the self-cleavage was 1.7. The same measure for U37C G80U: 0.11; for U38C A82G: 0.57; for U39C A47U: 0.79. The same measure for A36U U103A: 0.63. With A36U U103C, the self-cleavage is 1.16. For U37C A117U, the self-cleavage came to 1.11. The same measure for U37C A117G: 1.98; for A36U U120C: 1.34. Then U39A A90G, with 0.95; and U39A A63G, with 1.95; and U37C G79U, with 0.12. The same measure for U38A A110G: 0.16. Take U38C U39C: the self-cleavage was found to be 1.64. The same measure for U38G A62C: 0.78.

For the variant U38C A51U, the self-cleavage was determined as 1.24. The same measure for U38C A51G: 1.33. The same measure for U39A U130C: 1.09; for U37A A60U: 1.8; for U37A A60G: 1.14.

With U39A A125U, the self-cleavage amounted to 2.5. Then U37A U139C, with 1.19; and U39C C76U, with 0.19.

In the case of U38C A116G, the self-cleavage was determined as 1.09. The same measure for U38C A116U: 0.09; for U39A U97C: 1.85.

As for U39A A111G, the self-cleavage was 0.02. Then U39C A91U, with 1.59. Take U39C A60G: the self-cleavage was determined as 1.42. For the variant U37C G115U, the self-cleavage came out at 0.37. For the variant U38C U127A, the self-cleavage amounted to 2.78. The same measure for U38A A51G: 1.33; for U37C A60C: 1.44; for U37C A60U: 1.69. Then U37C C42G, with 1.69; and U38A G104A, with 0. The same measure for A36U A95U: 1.37.
